Data published in US20250073347A1 (FORTVITA BIOLOGICS SINGAPORE PTE, published 2025).

Biological target: T1, human Claudin18.2 on cells (human, UniProt P56856-2 1-261)
T1 construct: whole, on cells; also called CLDN18.2; hCLDN18.2
Assay: flow cytometry on DANG-hCLDN18.2 cells, relative MFI (fold)
Procedure: The cells were centrifuged at 500 g for 5 min, and the cell medium was removed. […] The suspension was left to stand on ice for 30 min. The suspension was centrifuged at 500 g for 5 min, the supernatant was removed, and the cells were washed once with PBS. The goat anti-human Fc PE-labeled secondary antibody (SouthemBiotech, J2815-5H87B) was added at 100 µL/well. The resulting mixture was incubated on ice in the dark for 30 min. The mixture was centrifuged at 500 g for 5 min, the supernatant was removed, and the cells were washed once with PBS. The cells were resuspended in 50 μL of 1×PBS, and the suspension was loaded for FACS assay.

binding result: binds
B1: IEX019-02 (HB37A6-SYNtecan E conjugate) (antibody, human IgG1, kappa, V domains shown)
VH: EVQLLDSGGGLVQPGGSLRLSCAASGFTFSSYVMSWVRQAPGKGLNWVSTISHSGGSTYYADSVKGRFTISRDNSKNTLYLQMNSLRAEDTAVYYCAIDAPYYDILTGYRYWGQGTLVTVSS
VL: not shown
modifications: GlcNAc(Fuc)-6-N3-GalNAc at Asn297 conjugated to linker-payload compound 1 (cleavable linker, 2 exatecan); average DAR 3.52
notes: also called SYN-HB37A6-Ex
